Data published in patent US20220259315A1 (MABQUEST, published 2022).
Numbering of substitutions follows the chain as printed.

B1: 137F2 (antibody, V domains shown)
VH: QVQLQQPGAELVRPGTSVKMSCKAAGYTFTNYWIGWIKQRPGHGLEWIGDIYPGGGYTNYNEKFKGKATLTADTSSSTAYMQVSSLTSEDTGIYYCARGYDFVLDRWGQGTSVTVSS
VL: DIVMSQSPSSLAVSTGEKVTMTCKSSQSLFNSETQKNYLAWYQQKPGQPPKLLIFWASTRESGVPDRFLGSGSGTDFTLTISSVQAEDLAVYYCKQSYTLRTFGGGTKLEIK
notes: also called mouse 137F2A11
B2: A35796 (Fab, V domains shown)
VH: QMQLVQSGPEVKKPGTSVKVSCKASGFTFTNYWIGWVRQAPGQALEWMGDIYPGGGYTNYNEKFKGRVTITADKSTSTAYMELSSLRSEDTAVYYCARGYDFVLDRWGQGTTVTVSS
VL: DVVMTQSPAFLSVTPGEKVTITCKSSQSLFNSETQKNYLAWYQQKPGQPPKLLIYWASTRESGVPSRFSGSGSGTDFTLTISSLQPEDFATYYCKQSYTLRTFGGGTKLEIK
notes: humanized Fab clone of 137F2; also called humanized antibody A35796
B3: A35797 (Fab, V domains shown)
VH: EVQLVQSGAEVKKHGESLKISCKGSGYSFTNYWIGWVRQATGQGLEWMGDIYPGGGYTNYNEKFKGRVTITADKSTSTAYMELSSLRSEDTAVYYCARGYDFVLDRWGQGTTVTVSS
VL: B2 VL with V2I, V3Q, A9S, F10S, V13A, T14S, P15V, E17D, K18R
notes: humanized Fab clone of 137F2; also called humanized antibody A35797
B4: A35793 (Fab, V domains shown)
VH: B2 VH
VL: B2 VL with L79F, Q85E, P86A, F89A
notes: humanized Fab clone of 137F2; also called humanized antibody A35793
B5: A35818 (Fab, V domains shown)
VH: B2 VH
VL: B2 VL with P49A, K51R, L79F, Q85E, P86A, F89A
notes: humanized Fab clone of 137F2; also called humanized antibody A35818
B6: A35799 (Fab, V domains shown)
VH: B2 VH with P9A, P14T, T16S, F27Y, A40M, Q43K, A44G
VL: B2 VL
notes: humanized Fab clone of 137F2; also called humanized antibody A35799
B7: A35795 (Fab, V domains shown)
VH: B2 VH with M2V, P9A, T16A, F27Y, A44G
VL: B2 VL with P49A, K51R
notes: humanized Fab clone of 137F2; also called humanized antibody A35795
B8: A35805 (Fab, V domains shown)
VH: B2 VH with M2V, P9S, V11L, T16A, F27Y, Q43K, A44G
VL: B2 VL with L79F, Q85E, P86A, F89A
notes: humanized Fab clone of 137F2; also called humanized antibody A35805
B9: A35775 (Fab, V domains shown)
VH: EVQLVQSGAEVKKPGESLKISCKGSGYSFTNFYIHWVRQAPGQRLEWMGSIYPNYGDTAYNQKFKDRFVFSLDTSVSTAYLQISSLKAEDTAVYYCARGYSYAMDYWGQGTTVTVSS
VL: DIQMTQSPSSVSASVGDRVTITCSASQGISGDLNWYQQKPGQAPRLLIYHTSSLHSGVPSRFSGSGSGTDFTLTISSLQPEDFATYYCQYYSKDLLTFGGGTKLEIK
notes: humanized Fab clone of 135C12; also called humanized antibody A35775
B10: A35789 (Fab, V domains shown)
VH: EVQLVQSGAEVKKPGESLKISCKGSGYSFTNFYIHWVRQMPGKGLEWMGSIYPNYGDTAYNQKFKDRVTITADKSTSTAYMELSSLRSEDTAVYYCARGYSYAMDYWGQGTTVTVSS
VL: B9 VL with V58I, S60A, S77R, Q79E, T85V
notes: humanized Fab clone of 135C12; also called humanized antibody A35789
B11: A35774 (Fab, V domains shown)
VH: B9 VH
VL: B9 VL with Q42K, R45K
notes: humanized Fab clone of 135C12; also called humanized antibody A35774
B12: A36443 (Fab, V domains shown)
VH: B10 VH with E16A, S17T, L18V, G24V, S28T, M40A, P41R, K43Q, G44R, M48I
VL: B9 VL with D70E, S77R, Q79E, T85V
notes: humanized Fab clone of 135C12; also called humanized antibody A36443
B13: A35783 (Fab, V domains shown)
VH: B9 VH with P41R, M48I
VL: B9 VL with V11L, Q42K, A43T, R45K
notes: humanized Fab clone of 135C12; also called humanized antibody A35783
B14: A36437 (Fab, V domains shown)
VH: B9 VH with A40M, Q43K, R44G
VL: B9 VL with S10T, V11L, V58I, S60A, T85V
notes: humanized Fab clone of 135C12; also called humanized antibody A36437
B15: A36448 (Fab, V domains shown)
VH: B9 VH with A40M, Q43K, R44G
VL: B9 VL with S10T, V11L, Q42K, A43T, R45K
notes: humanized Fab clone of 135C12; also called humanized antibody A36448
B16: A35777 (Fab, V domains shown)
VH: B10 VH with E16A, S17T, L18V, G24V, S28T, M40A
VL: B9 VL with S10T, V11L
notes: humanized Fab clone of 135C12; also called humanized antibody A35777

Molecular target: T1, PD-1 M14
T1 PD-1 mutant: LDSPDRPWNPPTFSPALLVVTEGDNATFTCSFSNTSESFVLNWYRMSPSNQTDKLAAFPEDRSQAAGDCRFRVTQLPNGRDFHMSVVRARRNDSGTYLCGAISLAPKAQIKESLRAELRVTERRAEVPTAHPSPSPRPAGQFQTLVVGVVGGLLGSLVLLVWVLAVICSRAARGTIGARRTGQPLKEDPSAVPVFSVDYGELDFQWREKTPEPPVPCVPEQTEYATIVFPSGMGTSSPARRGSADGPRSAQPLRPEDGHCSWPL
Experiment: flow cytometry, HeLa cells transiently transfected with PD-1 M14, PE-labeled anti-mouse IgG secondary Ab

B1: binds.

Molecular target: T2, monkey Fc-PD-1 protein (monkey, UniProt Q15116 25-170 (human entry))
T2 construct: not shown: Fc part not described
T2 chain: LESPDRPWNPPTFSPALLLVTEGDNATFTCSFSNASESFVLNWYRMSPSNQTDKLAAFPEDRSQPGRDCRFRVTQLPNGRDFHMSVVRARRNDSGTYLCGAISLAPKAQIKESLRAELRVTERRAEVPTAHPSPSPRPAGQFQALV
Experiment: Biacore, monkey Fc-PD-1

Binder B1 has a Kd of 2.22 nM.

B1 showed a koff of 0.000305 s⁻¹.

Binder B1 has a kon of 138000 M⁻¹ s⁻¹.

Molecular target: T2, monkey Fc-PD-1 protein
Experiment: Biacore, Fab, monkey Fc-PD-1

B2 and B3 are within 1.5-fold of each other in Kd: 1.03 nM for the first, 1.13 nM for the second.

B4 and B5 are within 1.5-fold of each other in Kd: 1.13 nM for the first, 1.27 nM for the second.

B6 and B7 are within 1.5-fold of each other in Kd: 1.88 nM for the first, 1.64 nM for the second.

In the case of B8, the Kd is reported as 1.08 nM.

B2 and B3 are within 1.5-fold of each other in koff: 9.81e-05 s⁻¹ for the first, 0.000106 s⁻¹ for the second.

B4 and B5 are within 1.5-fold of each other in koff: 0.000105 s⁻¹ for the first, 0.000116 s⁻¹ for the second.

B6 and B7 are within 1.5-fold of each other in koff: 0.000169 s⁻¹ for the first, 0.000152 s⁻¹ for the second.

In the case of B8, the koff is reported as 9.49e-05 s⁻¹.

B2 and B3 are within 1.5-fold of each other in kon: 95300 M⁻¹ s⁻¹ for the first, 93700 M⁻¹ s⁻¹ for the second.

B4 and B5 are within 1.5-fold of each other in kon: 93200 M⁻¹ s⁻¹ for the first, 91400 M⁻¹ s⁻¹ for the second.

B6 and B7 are within 1.5-fold of each other in kon: 89700 M⁻¹ s⁻¹ for the first, 92500 M⁻¹ s⁻¹ for the second.

Binder B8 has a kon of 88200 M⁻¹ s⁻¹.

molecular target: T3, recombinant human Fc-PD-1 protein (human, UniProt Q15116 25-170); experiment: Biacore, Fab, human Fc-PD-1
T3 construct: may be the same protein as the PD-1 Fc fusion of the Luminex assays; also called recombinant human PD-1 in an Fc fusion construct; not shown: Fc part not described
T3 sequence (Q15116 25-170): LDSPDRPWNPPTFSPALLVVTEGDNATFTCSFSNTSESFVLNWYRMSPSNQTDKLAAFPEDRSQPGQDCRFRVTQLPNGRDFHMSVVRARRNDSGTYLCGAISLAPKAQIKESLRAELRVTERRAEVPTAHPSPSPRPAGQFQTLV

Compared with B9, B10 is 1.6-fold higher in Kd: 2.54 nM for the first, 4.17 nM for the second.

B11 and B12 are within 1.5-fold of each other in Kd: 2.61 nM for the first, 3.02 nM for the second.

Compared with B13, B14 is 1.7-fold higher in Kd: 2.55 nM for the first, 4.46 nM for the second.

B15 and B16 are within 1.5-fold of each other in Kd: 4.31 nM for the first, 5.13 nM for the second.

B9 and B10 are within 1.5-fold of each other in koff: 0.000203 s⁻¹ for the first, 0.000293 s⁻¹ for the second.

B11 and B12 are within 1.5-fold of each other in koff: 0.000211 s⁻¹ for the first, 0.000215 s⁻¹ for the second.

Compared with B13, B14 is 1.6-fold higher in koff: 0.000196 s⁻¹ for the first, 0.000317 s⁻¹ for the second.

B15 and B16 are within 1.5-fold of each other in koff: 0.000386 s⁻¹ for the first, 0.000352 s⁻¹ for the second.

B9 and B10 are within 1.5-fold of each other in kon: 80200 M⁻¹ s⁻¹ for the first, 70100 M⁻¹ s⁻¹ for the second.

B11 and B12 are within 1.5-fold of each other in kon: 80900 M⁻¹ s⁻¹ for the first, 71200 M⁻¹ s⁻¹ for the second.

B13 and B14 are within 1.5-fold of each other in kon: 76800 M⁻¹ s⁻¹ for the first, 71000 M⁻¹ s⁻¹ for the second.

B15 and B16 are within 1.5-fold of each other in kon: 89600 M⁻¹ s⁻¹ for the first, 68600 M⁻¹ s⁻¹ for the second.

molecular target: T3, recombinant human Fc-PD-1 protein; experiment: Biacore, Fab, human Fc-PD-1; remark: another data set of the same source

B2 and B3 are within 1.5-fold of each other in Kd: 1.18 nM for the first, 0.802 nM for the second.

B4 and B5 are within 1.5-fold of each other in Kd: 0.912 nM for the first, 1.06 nM for the second.

B6 and B7 are within 1.5-fold of each other in Kd: 0.734 nM for the first, 0.797 nM for the second.

In the case of B8, the Kd is reported as 0.937 nM.

Going from B2 to B3, the koff falls from 0.000123 s⁻¹ to 8.02e-05 s⁻¹ (1.5-fold).

B4 and B5 are within 1.5-fold of each other in koff: 9.49e-05 s⁻¹ for the first, 0.000104 s⁻¹ for the second.

B6 and B7 are within 1.5-fold of each other in koff: 7.43e-05 s⁻¹ for the first, 8.24e-05 s⁻¹ for the second.

Binder B8 has a koff of 8.78e-05 s⁻¹.

B2 and B3 are within 1.5-fold of each other in kon: 104000 M⁻¹ s⁻¹ for the first, 100000 M⁻¹ s⁻¹ for the second.

B4 and B5 are within 1.5-fold of each other in kon: 104000 M⁻¹ s⁻¹ for the first, 98800 M⁻¹ s⁻¹ for the second.

B6 and B7 are within 1.5-fold of each other in kon: 101000 M⁻¹ s⁻¹ for the first, 103000 M⁻¹ s⁻¹ for the second.

Binder B8 has a kon of 93700 M⁻¹ s⁻¹.

Molecular target: T2, monkey Fc-PD-1 protein
Experiment: Biacore, Fab, monkey Fc-PD-1
Remark: another data set of the same source

B9 and B10 are within 1.5-fold of each other in Kd: 5.73 nM for the first, 6.19 nM for the second.

Going from B11 to B12, the Kd rises from 2.79 nM to 6.16 nM (2.2-fold).

First: B13
Second: B14
The Kd of the first is 3.2-fold lower: 1.9 nM for the first, 6.07 nM for the second. The first binds more tightly here.

For B16, the Kd was 5 nM.

B9 and B10 are within 1.5-fold of each other in koff: 0.000347 s⁻¹ for the first, 0.000413 s⁻¹ for the second.

First: B11
Second: B12
The koff of the first is 3-fold lower: 0.000194 s⁻¹ for the first, 0.000585 s⁻¹ for the second.

Compared with B13, B14 is 2.2-fold lower in koff: 0.0008 s⁻¹ for the first, 0.000368 s⁻¹ for the second.

In the case of B16, the koff is reported as 0.000575 s⁻¹.

B9 and B10 are within 1.5-fold of each other in kon: 60500 M⁻¹ s⁻¹ for the first, 66700 M⁻¹ s⁻¹ for the second.

B11 and B12 are within 1.5-fold of each other in kon: 69300 M⁻¹ s⁻¹ for the first, 94900 M⁻¹ s⁻¹ for the second.

Compared with B13, B14 is 6.9-fold lower in kon: 421000 M⁻¹ s⁻¹ for the first, 60700 M⁻¹ s⁻¹ for the second.

B16 showed a kon of 115000 M⁻¹ s⁻¹.
